Columns and labels:
[1] = molecular target: WT nucleosomal array (recombinant Xenopus laevis histone octamers on 601-177-12 or 601-177-36 DNA) (Xenopus laevis); test: AUC
[2] = molecular target: WT nucleosomal array with Sir2/4 complex added beforehand (S. cerevisiae | Xenopus laevis) (UniProt P06700); test: AUC

stoichiometry N (molecules of Sir3 per array) [1]	stoichiometry N (molecules of Sir3 per array) [2]	stoichiometry N (Sir2/4 per nucleosome) [1]	stoichiometry N (complexes bound per array) [1]	stoichiometry N (molecules of Sir2/4 per array) [1]	Substance
22	22	–	–	–	FLAG-tagged Sir3 protein (from UniProt P06701 1-978) (natural protein)
–	–	1	4	11	TAP-tagged Sir2/4 complex (from UniProt P06700;P11978)
